14 molecules from US20230109275A1 (AUTOLUS, published 2023) can be followed below.

Where a chain is given by its changes, count along the chain named. Names may count otherwise.

To fix the notation:
B1: Mut11-MMAE (antibody, V domains shown)
VH: QVQLVQSGAEVKKPGASVKVSCKASGYTFTGYVMHWVRQAPGQGLEWMGFINPYNDDIQSNERFRGRVTMTRDTSISTAYMELSRLRSDDTAVYYCARGAGYNFDAAYRFFDFWGQGTMVTVSS
VL: DIVMTQSPLSLPVTPGEPASISCRSSQRLVHSNGNTYLHWYLQKPGQSPRLLIYRVSNRFPGVPDRFSGSGSGTDFTLKISRVEAEDVGVYYCSQSTHVPYTFGQGTKLEIK
modifications: mc-vc-PAB-MMAE conjugated to reduced inter-chain cysteines; drug-antibody ratio 3.1
notes: also called MMAE-conjugated Mut11; MMAE conjugated Mut11
B2: Mut15-MMAE (antibody, V domains shown)
VH: B1 VH with T28K, Y32F, A100N, Y102L, N103M, A106G
VL: B1 VL with N35R
modifications: mc-vc-PAB-MMAE conjugated to reduced inter-chain cysteines; drug-antibody ratio 3.2
notes: also called MMAE-conjugated Mut15; MMAE conjugated Mut15
B3: Mut15 (antibody, V domains shown)
VH: B1 VH with T28K, Y32F, A100N, Y102L, N103M, A106G
VL: B1 VL with N35R
notes: Variant of hJOVI-1; IgG format; also called TRBC2 antibody Mut15; KFN variant Mut15
B4: Mut3 (KFN) (antibody, V domains shown)
VH: B1 VH with T28K, Y32F, A100N, A106G
VL: B1 VL
notes: Variant of hJOVI-1; IgG format; also called anti-TRBC2 antibody KFN; anti-TRBC2 clone KFN
B5: Mut4 (RFN) (antibody, V domains shown)
VH: B1 VH with T28R, Y32F, A100N, A106G
VL: B1 VL
notes: Variant of hJOVI-1; captured by anti-human IgG in SPR
B6: hJOVI-1 (humanised JOVI-1 antibody, reference antibody) (antibody, V domains shown)
VH: B1 VH with A106G
VL: B1 VL
notes: Tested in IgG format and captured by anti-human IgG in SPR; also called aTRBC1; anti-TRBC1 antibody hJOVI-1
B7: Mut11 (antibody, V domains shown)
VH: B1 VH
VL: B1 VL
notes: Variant of hJOVI-1; IgG format; also called VH G106A; anti-TRBC1 antibody Mut11
B8: Mut8 (antibody, V domains shown)
VH: B1 VH with G31S, A106G
VL: B1 VL
notes: Variant of hJOVI-1; captured by anti-human IgG in SPR; also called VH G31S
B9: Mut9 (antibody, V domains shown)
VH: B1 VH with G26P, T28K, A106G
VL: B1 VL
notes: Variant of hJOVI-1; captured by anti-human IgG in SPR; also called VH G26P, T28K
B10: Mut10 (antibody, V domains shown)
VH: B1 VH with Y102M, A106G
VL: B1 VL
notes: Variant of hJOVI-1; captured by anti-human IgG in SPR; also called VH Y102M
B11: Mut13 (antibody, V domains shown)
VH: B1 VH with T28K, Y32F, A100N, A106G
VL: B1 VL with N35K
notes: Variant of hJOVI-1; captured by anti-human IgG in SPR; also called VH T28K, Y32F, A100N; VL N35K
B12: Mut14 (antibody, V domains shown)
VH: B1 VH with T28K, Y32F, A100N, A106G, A107S
VL: B1 VL
notes: Variant of hJOVI-1; IgG format; also called VH T28K, Y32F, A100N, A107S
B13: Mut12 (antibody, V domains shown)
VH: B1 VH with T28K, Y32F, A100N, N103L, A106G
VL: B1 VL with N35K
notes: Variant of hJOVI-1; captured by anti-human IgG in SPR; also called VH T28K, Y32F, A100N, N103L; VL N35K
B14: Mut5 (antibody, V domains shown)
VH: B1 VH with Y32F, A106G
VL: B1 VL
notes: Variant of hJOVI-1; captured by anti-human IgG in SPR; also called VH Y32F

The first test deals with T1, TRBC2 on HPB-ALL cells engineered to express only TRBC2 (human, UniProt A0A5B9 1-178).
T1 construct: whole, on cells; also called HPB-ALL TRBC2; HPB-ALL TRBC2+
The experiment in a line: internalisation (9h), pHrodo green MFI, flow cytometry. (A flow cytometer gives signals particle by particle.)
Consider B1, for which the binding result is recorded as “no binding (tested: not printed on the sheet)”.

In a further test the target is T2, TRBC1 on HPB-ALL cells engineered to express only TRBC1 (human, UniProt P01850 1-176).
T2 construct: whole, on cells; also called HPB-ALL TRBC1; HPB-ALL TRBC1+
The test is described as above.
For B2, the binding result is “no binding (tested: not printed on the sheet)”.

With B3, the binding result is listed as “no binding (tested: not printed on the sheet)”.

A further test deals with T3, TRBC2 (T cell receptor beta-chain constant domain 2), interaction partner protein injected in SPR (human, UniProt A0A5B9 1-129, limits assumed).
T3 construct: the construct is not described; also called TCR beta constant region 2
T3 sequence (A0A5B9 1-129 limits assumed): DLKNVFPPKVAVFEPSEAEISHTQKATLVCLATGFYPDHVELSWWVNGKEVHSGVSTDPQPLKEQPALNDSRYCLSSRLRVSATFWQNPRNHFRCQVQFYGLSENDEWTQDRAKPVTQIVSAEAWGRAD
The experiment in a line: SPR (Biacore T200), antibody captured on anti-human IgG chip, TRBC2 injected, 25 C, 1:1 Langmuir fit. On the procedure:
(§1) Surface plasmon resonance (SPR) was carried out on several of antibody variants of hJOVI-1 to ascertain affinity, association and dissociation rates. The sequence details of these variants Mut1 to Mut15 used in the Examples section of the present patent application are included in Tables 1 and 2. These anti-TRBC antibody variants have specificity for either TRBC1 or TRBC2.
(§2) SPR experiments were performed using a Biacore T200 instrument using HBSP1 as the running and dilution buffer (GE Healthcare BioSciences). BIAevaluation software version 2.0 (GE Healthcare) was used for data processing. For determination of the binding kinetics, mouse anti-human IgG (GE Healthcare) was covalently coupled to a CM5 Sensor Chip (GE Healthcare). Anti-TRBC1 or anti-TRBC2 antibodies were captured onto the flow cell, and various concentrations of interaction partner protein (TRBC1 or TRBC2) were injected over the flow cell at a flow rate of […] at a temperature of 25° C. A double reference subtraction was performed using buffer alone. Kinetic rate constants were obtained by curve fitting according to a 1:1 Langmuir binding model.
(In general: SPR reads the build-up and loss of mass on a sensor chip optically.)
On to B4, for which the affinity, expressed as Kd, was 479 nM; the koff came to 0.0386 s⁻¹; the kon is 83000 M⁻¹ s⁻¹.

B5: binding was characterised by a dissociation constant (Kd) of 582 nM, the koff worked out at 0.045 s⁻¹ and the kon is 77600 M⁻¹ s⁻¹.

Take B3: the affinity, expressed as Kd, was 1900 nM; the koff was found to be 0.0832 s⁻¹; the kon amounted to 43800 M⁻¹ s⁻¹.

In the next test the target is T1, TRBC2 on HPB-ALL cells engineered to …. The experiment in a line: internalisation of pHrodo red conjugated antibody, flow cytometry, 24 h. The method, then:
(§3) Cell uptake of the anti-TRBC1 antibody hJOVI-1 and the anti-TRBC2 antibody KFN was tested on HPB-ALL cells that were engineered to express only TRBC1, only TRBC2, or which were the TRBC was knocked-out (KO). To this aim, the pH-sensitive fluorophore
(§4) Zenon pHrodo iFL red (Thermo Scientific), which has a 560/585 nm spectrum, was used to conjugate hJOVI-1 and KFN in IgG format following the manufacturer's recommendations. The irrelevant anti-HEL antibody was also conjugated for use as control. The conjugated antibodies were incubated with HPB-ALL TRBC1, HPB-ALL TRBC2 and HPB-ALL KO cells for 24 h at 37° C., 5% CO2. Test antibodies hJOVI-1, KFN, and anti-HEL were applied at 5 μg/ml in a 96-well plate with 5×10⁴ cells/well in 100 μl of RPMI 10% FBS. After 24 h, cells were washed, harvested and stained with 1:100 LIVE/DEAD™ Fixable Violet Dead Cell Stain (Thermofisher) for 10 min before being analysed by flow cytometry using a Fortessa flow cytometer (BD).
Take B6: the binding result is reported as “no binding (tested: 5 µg/ml)”.

Another test has as its target T2, TRBC1 on HPB-ALL cells engineered to …. The test is described as above. The method, then: as §3, §4
In the case of B4, the binding result is given as “no binding (tested: 5 µg/ml)”.

In the next test the target is T1, TRBC2 on HPB-ALL cells engineered to …. Description: internalisation of pHrodo green conjugated antibody, flow cytometry.
Consider B7, for which the binding result was “no binding”.

For the next test, the target named is T4, TRBC1 (T cell receptor beta-chain constant domain 1), interaction partner protein injected in SPR (human, UniProt P01850 1-129, limits assumed).
T4 construct: also called TCR beta constant region 1
T4 sequence (P01850 1-129 limits assumed): as the sequence (A0A5B9 1-129 limits assumed) above, with K3N, N4K, K9E, Y36F counted along it
Description: SPR (Biacore T200), antibody captured on anti-human IgG chip, TRBC1 injected, 25 C, 1:1 Langmuir fit. The method, then:
as §1, §2
On to B6, for which the Kd turned out to be 2.57 nM, the koff was 0.000618 s⁻¹ and the kon is 238000 M⁻¹ s⁻¹.

In turn, B8 returned a Kd of 7.69 nM, a koff of 0.000756 s⁻¹ and a kon of 98300 M⁻¹ s⁻¹.

On to B9, for which the Kd was found to be 28.9 nM, the koff came to 0.00248 s⁻¹ and the kon came out at 85800 M⁻¹ s⁻¹.

B10 had a Kd of 90 nM, a koff of 0.00951 s⁻¹ and a kon of 106000 M⁻¹ s⁻¹.

Regarding B7, the affinity, expressed as Kd, was 203 nM; the koff came to 0.0177 s⁻¹; the kon was found to be 87300 M⁻¹ s⁻¹.

The molecule B11 displayed a Kd of 1000 nM, a koff of 0.108 s⁻¹ and a kon of 107000 M⁻¹ s⁻¹.

With B12, the Kd came out at 3590 nM, the koff worked out at 0.323 s⁻¹ and the kon was determined as 90000 M⁻¹ s⁻¹.

Regarding B13, the Kd was 707 nM, the koff is 0.0613 s⁻¹ and the kon came out at 86800 M⁻¹ s⁻¹.

B14 came in with a Kd of 426 nM, a koff of 0.0457 s⁻¹ and a kon of 107000 M⁻¹ s⁻¹.

The term Kd denotes the equilibrium constant for the complex coming apart. Broadly, the koff is a measure of how fast the partners let go of each other. Read a low koff as a long-lived complex. One may read the kon as the rate constant with which the complex forms. A high value points to faster complex formation.
